Measurements as given in article PMC8458281, “Computational modeling and experimental validation of the EPI-X4/CXCR4 complex allows rational design of small peptide antagonists” (Communications Biology, 2021).

B1: WSC02 [human] / CXCR4 wt (transfected 293T cells) [human] (parent complex)
chain 1: IVRWSKKVPCVS
chain 2: MEGISIYTSDNYTEEMGSGDYDSMKEPCFREENANFNKIFLPTIYSIIFLTGIVGNGLVILVMGYQKKLRSMTDKYRLHLSVADLLFVITLPFWAVDAVANWYFGNFLCKAVHVIYTVNLYSSVLILAFISLDRYLAIVHATNSQRPRKLLAEKVVYVGVWIPALLLTIPDFIFANVSEADDRYICDRFYPNDLWVVVFQFQHIMVGLILPGIVILSCYCIIISKLSHSKGHQKRKALKTTVILILAFFACWLPYYIGISIDSFILLEIIKQGCEFENTVHKWISITEALAFFHCCLNPILYAFLGAKFKTSAQHALTSVSRGSSLKILSKGKRGGHSSVSTESESSSFHSS

Variants of: B1
Assay: 12G5 antibody competition assay, flow cytometry on transfected 293T cells; 2 h incubation; IC50 set to 1000 µM if above the maximally used concentration; parent: 1e+03 nM; read off a plot

Variant	IC50 [µM]
chain 2 MEGISIYTSDNYTEEMGSGDYDSMKEPCFREENANFNKIFLPTIYSIIFLTGIVGNGLVILVMGYQKKLRSMTDKYRLHLSVADLLFVITLPFWAVDAVANWYFGNFLCKAVHVIYTVNLYSSVLILAFISLDRYLAIVHATNSQRPRKLLAEKVVYVGVWIPALLLTIPDFIFANVSEADDRYICERFYPNDLWVVVFQFQHIMVGLILPGIVILSCYCIIISKLSHSKGHQKRKALKTTVILILAFFACWLPYYIGISIDSFILLEIIKQGCEFENTVHKWISITEALAFFHCCLNPILYAFLGAKFKTSAQHALTSVSRGSSLKILSKGKRGGHSSVSTESESSSFHSS [chain 2 D187E]	~0.42
chain 2 MEGISIYTSDNYTEEMGSGDYDSMKEPCFREENANFNKIFLPTIYSIIFLTGIVGNGLVILVMGYQKKLRSMTDKYRLHLSVADLLFVITLPFWAVQAVANWYFGNFLCKAVHVIYTVNLYSSVLILAFISLDRYLAIVHATNSQRPRKLLAEKVVYVGVWIPALLLTIPDFIFANVSEADDRYICDRFYPNDLWVVVFQFQHIMVGLILPGIVILSCYCIIISKLSHSKGHQKRKALKTTVILILAFFACWLPYYIGISIDSFILLEIIKQGCEFENTVHKWISITEALAFFHCCLNPILYAFLGAKFKTSAQHALTSVSRGSSLKILSKGKRGGHSSVSTESESSSFHSS [chain 2 D97Q]	~690
chain 2 MEGISIYTSDNYTEEMGSGDYDSMKEPCFREENANFNKIFLPTIYSIIFLTGIVGNGLVILVMGYQKKLRSMTDKYRLHLSVADLLFVITLPFWAVEAVANWYFGNFLCKAVHVIYTVNLYSSVLILAFISLDRYLAIVHATNSQRPRKLLAEKVVYVGVWIPALLLTIPDFIFANVSEADDRYICDRFYPNDLWVVVFQFQHIMVGLILPGIVILSCYCIIISKLSHSKGHQKRKALKTTVILILAFFACWLPYYIGISIDSFILLEIIKQGCEFENTVHKWISITEALAFFHCCLNPILYAFLGAKFKTSAQHALTSVSRGSSLKILSKGKRGGHSSVSTESESSSFHSS [chain 2 D97E]	~8
chain 2 MEGISIYTSDNYTEEMGSGDYDSMKEPCFREENANFNKIFLPTIYSIIFLTGIVGNGLVILVMGYQKKLRSMTDKYRLHLSVADLLFVITLPFWAVNAVANWYFGNFLCKAVHVIYTVNLYSSVLILAFISLDRYLAIVHATNSQRPRKLLAEKVVYVGVWIPALLLTIPDFIFANVSEADDRYICDRFYPNDLWVVVFQFQHIMVGLILPGIVILSCYCIIISKLSHSKGHQKRKALKTTVILILAFFACWLPYYIGISIDSFILLEIIKQGCEFENTVHKWISITEALAFFHCCLNPILYAFLGAKFKTSAQHALTSVSRGSSLKILSKGKRGGHSSVSTESESSSFHSS [chain 2 D97N]	~380
chain 2 MEGISIYTSDNYTEEMGSGDYDSMKEPCFREENANFNKIFLPTIYSIIFLTGIVGNGLVILVMGYQKKLRSMTDKYRLHLSVADLLFVITLPFWAVSAVANWYFGNFLCKAVHVIYTVNLYSSVLILAFISLDRYLAIVHATNSQRPRKLLAEKVVYVGVWIPALLLTIPDFIFANVSEADDRYICDRFYPNDLWVVVFQFQHIMVGLILPGIVILSCYCIIISKLSHSKGHQKRKALKTTVILILAFFACWLPYYIGISIDSFILLEIIKQGCEFENTVHKWISITEALAFFHCCLNPILYAFLGAKFKTSAQHALTSVSRGSSLKILSKGKRGGHSSVSTESESSSFHSS [chain 2 D97S]	~320
chain 2 MEGISIYTSDNYTEEMGSGDYDSMKEPCFREENANFNKIFLPTIYSIIFLTGIVGNGLVILVMGYQKKLRSMTDKYRLHLSVADLLFVITLPFWAVDAVANWYFGNFLCKAAHVIYTVNLYSSVLILAFISLDRYLAIVHATNSQRPRKLLAEKVVYVGVWIPALLLTIPDFIFANVSEADDRYICDRFYPNDLWVVVFQFQHIMVGLILPGIVILSCYCIIISKLSHSKGHQKRKALKTTVILILAFFACWLPYYIGISIDSFILLEIIKQGCEFENTVHKWISITEALAFFHCCLNPILYAFLGAKFKTSAQHALTSVSRGSSLKILSKGKRGGHSSVSTESESSSFHSS [chain 2 V112A]	~0.6
chain 2 MEGISIYTSDNYTEEMGSGDYDSMKEPCFREENANFNKIFLPTIYSIIFLTGIVGNGLVILVMGYQKKLRSMTDKYRLHLSVADLLFVITLPFWAVDAVANWYFGNFLCKALHVIYTVNLYSSVLILAFISLDRYLAIVHATNSQRPRKLLAEKVVYVGVWIPALLLTIPDFIFANVSEADDRYICDRFYPNDLWVVVFQFQHIMVGLILPGIVILSCYCIIISKLSHSKGHQKRKALKTTVILILAFFACWLPYYIGISIDSFILLEIIKQGCEFENTVHKWISITEALAFFHCCLNPILYAFLGAKFKTSAQHALTSVSRGSSLKILSKGKRGGHSSVSTESESSSFHSS [chain 2 V112L]	~0.4
chain 2 MEGISIYTSDNYTEEMGSGDYDSMKEPCFREENANFNKIFAPTIYSIIFLTGIVGNGLVILVMGYQKKLRSMTDKYRLHLSVADLLFVITLPFWAVDAVANWYFGNFLCKAAHVIYTVNLYSSVLILAFISLDRYLAIVHATNSQRPRKLLAEKVVYVGVWIPALLLTIPDFIFANVSEADDRYICDRFYPNDLWVVVFQFQHIMVGLILPGIVILSCYCIIISKLSHSKGHQKRKALKTTVILILAFFACWLPYYIGISIDSFILLEIIKQGCEFENTVHKWISITEALAFFHCCLNPILYAFLGAKFKTSAQHALTSVSRGSSLKILSKGKRGGHSSVSTESESSSFHSS [chain 2 L41A, chain 2 V112A]	~4.8
chain 2 MEGISIYTSDNYTEEMGSGDYDSMKEPCFREENANFNKIFAPTIYSIIFLTGIVGNGLVILVMGYQKKLRSMTDKYRLHLSVADLLFVITLPFWAVDAVANWYFGNFLCKAVHVIYTVNLYSSVLILAFISLDRYLAIVHATNSQRPRKLLAEKVVYVGVWIPALLLTIPDFIFANVSEADDRYICDRFYPNDLWVVVFQFQHIMVGLILPGIVILSCYCIIISKLSHSKGHQKRKALKTTVILILAFFACWLPYYIGISIDSFILLEIIKQGCEFENTVHKWISITEALAFFHCCLNPILYAFLGAKFKTSAQHALTSVSRGSSLKILSKGKRGGHSSVSTESESSSFHSS [chain 2 L41A]	~1.5
chain 2 MEGISIYTSDNYTEEMGSGDYDSMKEPCFREENANFNKIFLPTIYSIIFLTGIVGNGLVILVMGYQKKLRSMTDKYRLHLSVADLLFVITLPFWAVDAVANWYFGNFLCKAVHVIYTVNLYSSVLILAFISLDRYLAIVHATNSQRPRKLLAEKVVYVGVWIPALLLTIPDFIFANVSEADDRYICDRFYPNDLWVVVFQFQHIMVGLILPGIVILSCYCIIISKLSHSKGHQKRKALKTTVILILAFFACWLPYYIGISIDSFILLEIIKQGCEFANTVHKWISITEALAFFHCCLNPILYAFLGAKFKTSAQHALTSVSRGSSLKILSKGKRGGHSSVSTESESSSFHSS [chain 2 E277A]	~0.75
